The test concerns the target human FGF21 receptor (FGFR1) stably expressed on PathHunter U2OS cells (human) (UniProt P11362). Put plainly: cell-based or functional assay.

Chain of human FGF21 receptor (FGFR1) stably expressed on PathHunter U2OS cells (human) (P11362 22-822): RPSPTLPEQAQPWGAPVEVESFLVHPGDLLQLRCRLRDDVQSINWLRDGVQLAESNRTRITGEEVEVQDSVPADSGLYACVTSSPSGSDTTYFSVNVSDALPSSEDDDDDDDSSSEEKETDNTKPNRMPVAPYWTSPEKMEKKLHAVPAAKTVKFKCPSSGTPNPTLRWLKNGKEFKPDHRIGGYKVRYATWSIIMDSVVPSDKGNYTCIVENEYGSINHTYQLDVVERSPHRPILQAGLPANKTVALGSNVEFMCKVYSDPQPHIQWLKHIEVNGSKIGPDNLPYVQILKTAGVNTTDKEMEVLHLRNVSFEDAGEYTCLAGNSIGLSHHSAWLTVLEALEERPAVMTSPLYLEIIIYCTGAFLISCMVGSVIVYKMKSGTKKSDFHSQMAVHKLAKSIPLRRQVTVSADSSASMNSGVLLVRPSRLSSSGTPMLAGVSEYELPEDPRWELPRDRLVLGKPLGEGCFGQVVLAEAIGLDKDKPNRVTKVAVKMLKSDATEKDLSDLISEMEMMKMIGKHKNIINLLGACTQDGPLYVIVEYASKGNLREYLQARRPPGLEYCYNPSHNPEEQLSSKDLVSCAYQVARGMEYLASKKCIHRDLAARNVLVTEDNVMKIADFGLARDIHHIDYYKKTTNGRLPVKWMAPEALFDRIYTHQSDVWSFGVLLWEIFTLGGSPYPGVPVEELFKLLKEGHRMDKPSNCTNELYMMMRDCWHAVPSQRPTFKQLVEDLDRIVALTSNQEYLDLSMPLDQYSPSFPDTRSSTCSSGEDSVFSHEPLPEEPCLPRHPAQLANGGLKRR

Turning to “FGF21 protein with I3C substitution and His6 tag (from UniProt Q9NSA1 32-209) (ligand)”, the EC50, recruitment of the co-receptor beta-Klotho came to 0.16 µg/mL.
In turn, “VitD-(3)-PEG2K-FGF21 (from UniProt Q9NSA1 32-209) (ligand)” gave an EC50, recruitment of the co-receptor beta-Klotho of 0.4 µg/mL.
Turning to “VitD-(25)-PEG2K-FGF21 (from UniProt Q9NSA1 32-209) (ligand)”, the EC50, recruitment of the co-receptor beta-Klotho was found to be 0.13 µg/mL.

Values taken from patent US20190183966A1.
